We go through two molecules from publication doi:10.1101/2021.03.12.434960.

For experiment [1], the target named is T1, full-length human KIF5B, C-terminal mScarlet-StrepII (human), P33176.
T1 chain: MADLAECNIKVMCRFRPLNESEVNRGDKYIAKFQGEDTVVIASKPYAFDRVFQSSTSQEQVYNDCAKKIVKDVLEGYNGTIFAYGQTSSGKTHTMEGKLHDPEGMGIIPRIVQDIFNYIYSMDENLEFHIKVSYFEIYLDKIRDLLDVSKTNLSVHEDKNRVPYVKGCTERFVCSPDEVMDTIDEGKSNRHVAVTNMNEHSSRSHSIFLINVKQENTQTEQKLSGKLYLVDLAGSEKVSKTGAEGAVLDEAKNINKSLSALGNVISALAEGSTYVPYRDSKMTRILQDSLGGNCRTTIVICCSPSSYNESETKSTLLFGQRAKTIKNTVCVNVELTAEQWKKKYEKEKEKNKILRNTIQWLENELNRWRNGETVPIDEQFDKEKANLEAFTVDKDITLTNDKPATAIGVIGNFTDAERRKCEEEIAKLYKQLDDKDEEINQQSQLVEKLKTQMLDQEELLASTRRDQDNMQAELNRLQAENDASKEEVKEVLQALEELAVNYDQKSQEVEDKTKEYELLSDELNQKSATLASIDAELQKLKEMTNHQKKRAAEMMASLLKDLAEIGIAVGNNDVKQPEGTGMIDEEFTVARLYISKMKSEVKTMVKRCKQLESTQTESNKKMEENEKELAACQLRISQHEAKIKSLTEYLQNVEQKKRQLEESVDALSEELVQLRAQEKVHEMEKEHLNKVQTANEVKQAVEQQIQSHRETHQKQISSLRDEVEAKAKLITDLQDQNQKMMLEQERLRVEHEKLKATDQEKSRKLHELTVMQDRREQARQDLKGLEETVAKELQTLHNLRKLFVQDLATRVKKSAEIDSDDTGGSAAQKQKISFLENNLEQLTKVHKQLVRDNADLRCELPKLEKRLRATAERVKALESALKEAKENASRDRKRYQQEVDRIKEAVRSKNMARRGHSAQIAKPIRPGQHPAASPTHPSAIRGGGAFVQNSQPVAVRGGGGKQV
As to the kind of experiment: SEC-MALS. As to conditions: remark: other sources report otherwise. Background: In gel filtration, larger molecules generally elute earlier.

In experiment [2] the target is T2, full-length human KIF5A, C-terminal mScarlet-StrepII (human), Q12840.
T2 chain: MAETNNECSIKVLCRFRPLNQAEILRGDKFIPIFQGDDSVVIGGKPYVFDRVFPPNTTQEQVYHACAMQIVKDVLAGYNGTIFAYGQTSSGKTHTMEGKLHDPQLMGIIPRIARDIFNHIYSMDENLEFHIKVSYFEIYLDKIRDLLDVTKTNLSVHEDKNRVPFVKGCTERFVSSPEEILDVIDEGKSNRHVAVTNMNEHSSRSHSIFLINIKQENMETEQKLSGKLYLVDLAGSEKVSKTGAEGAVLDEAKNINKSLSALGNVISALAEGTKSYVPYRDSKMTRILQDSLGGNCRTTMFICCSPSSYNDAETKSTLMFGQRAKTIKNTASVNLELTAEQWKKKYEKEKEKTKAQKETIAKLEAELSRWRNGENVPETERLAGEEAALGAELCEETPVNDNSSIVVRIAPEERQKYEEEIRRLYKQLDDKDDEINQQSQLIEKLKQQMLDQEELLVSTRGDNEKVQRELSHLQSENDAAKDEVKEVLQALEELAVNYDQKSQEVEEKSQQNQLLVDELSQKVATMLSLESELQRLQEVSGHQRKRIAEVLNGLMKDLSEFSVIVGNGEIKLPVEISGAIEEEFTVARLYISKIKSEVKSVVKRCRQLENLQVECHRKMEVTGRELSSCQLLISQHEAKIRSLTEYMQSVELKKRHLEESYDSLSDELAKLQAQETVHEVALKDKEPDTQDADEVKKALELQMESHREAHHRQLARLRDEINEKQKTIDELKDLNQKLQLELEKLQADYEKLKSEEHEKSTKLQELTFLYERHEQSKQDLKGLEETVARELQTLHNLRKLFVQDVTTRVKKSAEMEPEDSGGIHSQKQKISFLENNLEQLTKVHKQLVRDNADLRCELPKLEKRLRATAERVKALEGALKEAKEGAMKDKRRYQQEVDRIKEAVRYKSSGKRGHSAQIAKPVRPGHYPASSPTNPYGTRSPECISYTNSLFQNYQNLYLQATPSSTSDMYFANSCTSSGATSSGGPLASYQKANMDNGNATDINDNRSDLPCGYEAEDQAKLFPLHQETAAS
As to the kind of experiment: SEC-MALS. As to conditions: remark: other sources report otherwise.

B1: full-length human KIF5B, C-terminal mScarlet-StrepII, P33176 1-963 (natural protein)
chain: MADLAECNIKVMCRFRPLNESEVNRGDKYIAKFQGEDTVVIASKPYAFDRVFQSSTSQEQVYNDCAKKIVKDVLEGYNGTIFAYGQTSSGKTHTMEGKLHDPEGMGIIPRIVQDIFNYIYSMDENLEFHIKVSYFEIYLDKIRDLLDVSKTNLSVHEDKNRVPYVKGCTERFVCSPDEVMDTIDEGKSNRHVAVTNMNEHSSRSHSIFLINVKQENTQTEQKLSGKLYLVDLAGSEKVSKTGAEGAVLDEAKNINKSLSALGNVISALAEGSTYVPYRDSKMTRILQDSLGGNCRTTIVICCSPSSYNESETKSTLLFGQRAKTIKNTVCVNVELTAEQWKKKYEKEKEKNKILRNTIQWLENELNRWRNGETVPIDEQFDKEKANLEAFTVDKDITLTNDKPATAIGVIGNFTDAERRKCEEEIAKLYKQLDDKDEEINQQSQLVEKLKTQMLDQEELLASTRRDQDNMQAELNRLQAENDASKEEVKEVLQALEELAVNYDQKSQEVEDKTKEYELLSDELNQKSATLASIDAELQKLKEMTNHQKKRAAEMMASLLKDLAEIGIAVGNNDVKQPEGTGMIDEEFTVARLYISKMKSEVKTMVKRCKQLESTQTESNKKMEENEKELAACQLRISQHEAKIKSLTEYLQNVEQKKRQLEESVDALSEELVQLRAQEKVHEMEKEHLNKVQTANEVKQAVEQQIQSHRETHQKQISSLRDEVEAKAKLITDLQDQNQKMMLEQERLRVEHEKLKATDQEKSRKLHELTVMQDRREQARQDLKGLEETVAKELQTLHNLRKLFVQDLATRVKKSAEIDSDDTGGSAAQKQKISFLENNLEQLTKVHKQLVRDNADLRCELPKLEKRLRATAERVKALESALKEAKENASRDRKRYQQEVDRIKEAVRSKNMARRGHSAQIAKPIRPGQHPAASPTHPSAIRGGGAFVQNSQPVAVRGGGGKQV
By stoichiometry N is commonly meant the number of molecules, sites or subunits per partner or assembly. Consider B1, for which, in experiment [1], the stoichiometry N amounted to 2.

B2: full-length human KIF5A, C-terminal mScarlet-StrepII, Q12840 1-1032 (natural protein)
chain: MAETNNECSIKVLCRFRPLNQAEILRGDKFIPIFQGDDSVVIGGKPYVFDRVFPPNTTQEQVYHACAMQIVKDVLAGYNGTIFAYGQTSSGKTHTMEGKLHDPQLMGIIPRIARDIFNHIYSMDENLEFHIKVSYFEIYLDKIRDLLDVTKTNLSVHEDKNRVPFVKGCTERFVSSPEEILDVIDEGKSNRHVAVTNMNEHSSRSHSIFLINIKQENMETEQKLSGKLYLVDLAGSEKVSKTGAEGAVLDEAKNINKSLSALGNVISALAEGTKSYVPYRDSKMTRILQDSLGGNCRTTMFICCSPSSYNDAETKSTLMFGQRAKTIKNTASVNLELTAEQWKKKYEKEKEKTKAQKETIAKLEAELSRWRNGENVPETERLAGEEAALGAELCEETPVNDNSSIVVRIAPEERQKYEEEIRRLYKQLDDKDDEINQQSQLIEKLKQQMLDQEELLVSTRGDNEKVQRELSHLQSENDAAKDEVKEVLQALEELAVNYDQKSQEVEEKSQQNQLLVDELSQKVATMLSLESELQRLQEVSGHQRKRIAEVLNGLMKDLSEFSVIVGNGEIKLPVEISGAIEEEFTVARLYISKIKSEVKSVVKRCRQLENLQVECHRKMEVTGRELSSCQLLISQHEAKIRSLTEYMQSVELKKRHLEESYDSLSDELAKLQAQETVHEVALKDKEPDTQDADEVKKALELQMESHREAHHRQLARLRDEINEKQKTIDELKDLNQKLQLELEKLQADYEKLKSEEHEKSTKLQELTFLYERHEQSKQDLKGLEETVARELQTLHNLRKLFVQDVTTRVKKSAEMEPEDSGGIHSQKQKISFLENNLEQLTKVHKQLVRDNADLRCELPKLEKRLRATAERVKALEGALKEAKEGAMKDKRRYQQEVDRIKEAVRYKSSGKRGHSAQIAKPVRPGHYPASSPTNPYGTRSPECISYTNSLFQNYQNLYLQATPSSTSDMYFANSCTSSGATSSGGPLASYQKANMDNGNATDINDNRSDLPCGYEAEDQAKLFPLHQETAAS
Turning to B2, the stoichiometry N in experiment [2] came out at 2.
